The record followed here is US5958721.

Some results are limits rather than exact numbers.

This assay deals with rabbit MAP kinase kinase (MAPKK) (rabbit) (UniProt P29678).

As to “ΔRaf-1 (human Raf-1 lacking the first 324 amino acids) (from UniProt P04049) (enzyme)”, the MAPKK phosphorylation in S. pombe (32P-orthophosphate labelling, immunoprecipitation, phosphorimager) was > 5 fold.
